Drawing on article PMC2323294, this text covers stoichiometry N for one substance.

The target in this test is recombinant human gC1qR/HABP1/p32 (mature, amino acids 74-282) (human) (UniProt Q07021). Briefly: SEC; gel permeation chromatography of purified recombinant gC1qR/HABP1 on a Superdex 200 HR10/30 column, against molecular weight standards.

Where “and” joins values, the source holds several entries; their conditions need not be identical. Identical values can stand only once.

On to “recombinant human gC1qR/HABP1/p32 (mature, amino acids 74-282) (from UniProt Q07021 74-282) (natural protein; other documents disagree on this pair)”, for which the stoichiometry N (commonly a count of units in the complex or per binding partner) is 3 and 2.
